The source of these data is patent US20250297255A1 (ARSENAL BIOSCIENCES, published 2025).

B1: TMPRSS4 Ab52 scFv (VH-VL) (scFv)
scFv: QVQLVQSGAEVKKPGASVKVSCKASGYTFTRYYIHWVRQAPGQGLEWMGWMNPNSGNTGFAQKLQGRVTMTRDTSTSTVYMELSSLRSEDTAVYYCARGPFPRGRLDLWGQGTLVTVSSGGGGSGGGGSGGGGSDIQMTQSPSSLSASVGDRVTITCRASQGISRWLGWYQQKPGKAPKLLIYGASNLQTGVPSRFSGSGSGTDFTLTISSLQPEDFATYYCQQSYSSPRTFGQGTKVEIK
notes: on monoclonal phage in the screen
B2: TMPRSS4 Ab59 scFv (VH-VL) (scFv)
scFv: QVQLVQSGAEVKKPGASVKVSCKASGGTFSSYTLSWVRQAPGQGLEWMGWIHPKSGVTKNAQKFQGRVTMTRDTSTSTVYMELSSLRSEDTAVYYCARGWVYGRMDAWGQGTTVTVSSGGGGSGGGGSGGGGSEIVMTQSPATLSVSPGERATLSCRASQSVSSNYLAWYQQKPGQAPRLLIYGASTRATGIPARFSGSGSGTEFTLTISSLQSEDFAVYYCQQYGTLPYTFGQGTKVEIK
notes: as for B1
B3: TMPRSS4 Ab66 scFv (VH-VL) (scFv)
scFv: QVQLVQSGAEVKKPGSSVKVSCKASGGTFSSYAISWVRQAPGQGLEWVGGIMPIFGTANYAQKFQGRVTITADESPSTAYMELSSLRSEDTAVYYCATGRRELLNWGQGTLVTVSSGGGGSGGGGSGGGGSEIVMTQSPATLSVSPGERATLSCRASQSVNSRFLAWYQQKPGQAPRLLIYGASTRATGIPARFSGSGSGTEFTLTISSLQSEDFAVYYCMQGTHWPYTFGQGTKVEIK
notes: as for B1
B4: TMPRSS4 Ab53 scFv (VH-VL) (scFv)
scFv: QVQLVQSGAEVKKPGASVKVSCKASGYTFTRYYMHWVRQAPGQGLEWMGIINPTGGSTSYAQKFQGRVTMTRDTSTSTVYMELSSLRSEDTAVYYCARGRTWIQSSLGYWGQGTLVTVSSGGGGSGGGGSGGGGSDIQMTQSPSSLSASVGDRVTITCRASRSINRWLAWYQQKPGKAPKLLIYGASTLQSGVPSRFSGSGSGTDFTLTISSLQPEDFATYYCQQSYSTPTFGGGTKVEIK
notes: as for B1
B5: TMPRSS4 Ab61 scFv (VH-VL) (scFv)
scFv: QVQLVQSGAEVKKPGASVKVSCKASGYTFTNYYMHWVRQAPGQGLEWMGWMNPNSGNTGYAQNLQGRVTMTRDTSTSTVYMELSSLRSEDTAVYYCARGRTWFRSGMDVWGQGTTVTVSSGGGGSGGGGSGGGGSEIVMTQSPATLSVSPGERATLSCRASQSVSSYLAWYQQKPGQAPRLLIYGASTRATGIPARFSGSGSGTEFTLTISSLQSEDFAVYYCQQYDISVTFGPGTKVDIK
notes: as for B1
B6: TMPRSS4 Ab63 scFv (VH-VL) (scFv)
scFv: QVQLVQSGAEVKKPGASVKVSCKASGYTFTGYRMHWVRQAPGQGLEWMGVINPNTGTARFAQKFQGRVTMTRDTSTSTVYMELSSLRSEDTAVYYCASVGVYWYFDLWGRGTLVTVSSGGGGSGGGGSGGGGSDIVMTQSPDSLAVSLGERATINCKSSQSVLYSSNNKNYLAWYQQKPGQPPKLLIYWASTRESGVPDRFSGSGSGTDFTLTISSLQAEDVAVYYCQQYYSAPLTFGGGTKVEIK
notes: as for B1
B7: TMPRSS4 Ab65 scFv (VH-VL) (scFv)
scFv: QVQLVQSGAEVKKPGASVKVSCKASGYTFTGYYMHWVRQAPGQGLEWMGWMNPNSGNTGYAQKFQGRVTMTRDTSTSTVYMELSSLRSEDTAVYYCAGRKWLGLDFYNWFDPWGQGTLVTVSSGGGGSGGGGSGGGGSDIVMTQSPDSLAVSLGERATINCKSSQSVLYSSNNKNYLAWYQQKPGQPPKLLIYWASTRQSGVPDRFSGSGSGTDFTLTISSLQAEDVAVYYCQQYYSTPWTFGQGTKVEIK
notes: as for B1
B8: TMPRSS4 Ab5 scFv (VH-VL) (scFv)
scFv: QVQLVQSGAEVKKPGSSVKVSCKASGYTFTSYYMHWVRQAPGQGLEWMGRIIPILGATDYAQKFQGRVTITADESTSTAYMELSSLRSEDTAVYYCARAGYSSIAARPAFWGQGTLVTVSSGGGGSGSGGGGSGGGGSEIVMTQSPATLSVSPGERATLSCRASQSVSSNLAWYQQKPGQAPRLLIYGASTRATGIPARFSGSGSGTEFTLTISSLQSEDFAVYYCQQYYSPFPLTFGGGTKVEIK
notes: as for B1
B9: TMPRSS4 Ab67 scFv (VH-VL) (scFv)
scFv: QVQLVQSGAEVKKPGSSVKVSCKASGYTFTSYDINWVRQAPGQGLEWMGGIIPIFGTANYAQKFQGRVTITADESTSTAYMELSSLRSEDTAVYYCATTPGDAFDIWGQGTMVTVSSGGGGSGGGGSGGGGSDIVMTQSPDSLAVSLGERATINCKSSQSVLYSSNNKNYLAWYQQKPGQPPKLLIYWASTRESGVPDRFSGSGSGTDFTLTISSLQAEDVAVYYCQQYSDTPLTFGQGTKVEIK
notes: as for B1
B10: TMPRSS4 Ab71 scFv (VH-VL) (scFv)
scFv: EVQLLESGGGLVQPGGSLRLSCAASGFMFDYYAMHWVRQAPGKGLEWVSLISYDGRNKYYADSVKGRFTISRDNSKNTLYLQMNSLRAEDTAVYYCARPGSYSRFQHWGQGTLVTVSSGGGGSGGGGSGGGGSDIQMTQSPSSLSASVGDRVTITCRASQGISNNLNWYQQKPGKAPKLLIYAASSLQSGVPSRFSGSGSGTDFTLTISSLQPEDFATYYCQQANNFPITFGQGTKVEIK
notes: as for B1
B11: TMPRSS4 Ab62 scFv (VH-VL) (scFv)
scFv: QVQLVQSGAEVKKPGASVKVSCKASGYTFTDYYIHWVRQAPGQGLEWMGWISTYNGNTNYAQKLQGRVTMTRDTSTSTVYMELSSLRSEDTAVYYCARGMVRGMDVWGQGTMVTVSSGGGGSGGGGSGGGGSDIVMTQSPDSLAVSLGERATINCKSSQSVLYSSNNKNYLAWYQQKPGQPPKLLIYWASTRESGVPDRFSGSGSGTDFTLTISSLQAEDVAVYYCQQYYTTPWTFGQGTRLEIK
notes: as for B1
B12: TMPRSS4 Ab6 scFv (VH-VL) (scFv)
scFv: QVQLVQSGAEVKKPGASVKVSCKASGYTFTSYYMHWVRQAPGQGLEWLGIINPSDYTTSYAQKFQGRVTMTRDTSTSTVYMELSSLRSEDTAVYYCARVASSSWYPGDENWYFDLWGRGTLVTVSSGGGGSGSGGGGSGGGGSDIVMTQSPDSLAVSLGERATINCKSSQSVLYSSNNKNYLAWYQQKPGQPPKLLIYWASTRESGVPDRFSGSGSGTDFTLTISSLQAEDVAIYYCQQYYAIPWTFGQGTKVEIK
notes: as for B1
B13: TMPRSS4 Ab70 scFv (VH-VL) (scFv)
scFv: EVQLLESGGGLVQPGGSLRLSCAASGFAFSGTWMQWVRQAPGKGLEWVSDISGSSRDTNYADSVKGRFTISRDNSKNTLYLQMNSLRAEDTAVYYCAKDHWDSYGYLDYWGQGTLVTVSSGGGGSGGGGSGGGGSDIQMTQSPSSLSASVGDRVTITCRASQSISGWLAWYQQKPGKAPKLLIYAASTLRDGVPSRFSGSGSGTDFTLTISSLQPEDFATYYCQQANSFPLTFGQGTKVEIK
notes: as for B1
B14: TMPRSS4 Ab7 scFv (VH-VL) (scFv)
scFv: QVQLVQSGAEVKKPGASVKVSCKASGYTFSRYFMHWVRQAPGQGLEWVGWINPNSGNTGYAQKFQGRVTMTRDTSTSTVYMELSSLRSEDTAVYYCARVVTGGRLDVWGQGTTVTVSSGGGGSGGGGSGGGGSEIVMTQSPATLSVSPGERATLSCRASQRVSNNYLAWYQQKPGQAPRLLIYGASTRASGIPARFSGSGSGTEFTLTISSLQSEDFAVYYCQQYGSTPYTFGQGTKVEIK
notes: as for B1
B15: TMPRSS4 Ab50 scFv (VH-VL) (scFv)
scFv: QVQLVQSGAEVKKPGASVKVSCKASGYTFTGYYMHWVRQAPGQGLEWMGWINPNSGGTHYAQKFQGRVTMTRDTSTSTVYMELSSLRSEDTAVYYCARVRIGWLQSPPLYWGQGTLVTVSSGGGGSGGGGSGGGGSDIQMTQSPSSLSASVGDRVTITCRASQGISNYLAWYQQKPGKAPKLLIYATSRLQSGVPSRFSGSGSGTDFTLTISSLQPEDFATYYCQQSYKTPLTFGGGTKVEIK
notes: as for B1
B16: TMPRSS4 Ab54 scFv (VH-VL) (scFv)
scFv: QVQLVQSGAEVKKPGASVKVSCKASGYTFTSYYMQWVRQAPGQGLEWMGWMNPNSGNTGYAQKFQGRVTMTRDTSTSTVYMELSSLRSEDTAVYYCARVRIGWLQSPPLYWGQGTLVTVSSGGGGSGGGGSGGGGSDIQMTQSPSSLSASVGDRVTITCRASQGISNYLAWYQQKPGKAPKLLIYAASSLQSGVPSRFSGSGSGTDFTLTISSLQPEDFATYYCQQSYSIPFTFGPGTKVDIK
notes: as for B1
B17: TMPRSS4 Ab49 scFv (VH-VL) (scFv)
scFv: QVQLVQSGAEVKKPGASVKVSCKASGYTFTGYYMHWVRQAPGQGLEWMGRINPNSGGTNYAQKFQGRVTMTRDTSTSTVYMELSSLRSEDTAVYYCARERAGYSSGQFDYWGQGTLVTVSSGGGGSGGGGSGGGGSDIQMTQSPSSLSASVGDRVTITCRASQSISNWLAWYQQKPGKAPKLLIYAASTLQNGVPSRFSGSGSGTDFTLTISSLQPEDFATYYCQQSYTFPITFGQGTKVEIK
notes: as for B1
B18: TMPRSS4 Ab60 scFv (VH-VL) (scFv)
scFv: QVQLVQSGAEVKKPGASVKVSCKASGYSFTTYYIHWVRQAPGQGLEWMGIINPSGGSTSYAQKFQGRVTMTRDTSTSTVYMELSSLRSEDTAVYYCARGGYYGSGYNSVGYWGPGTLVTVSSGGGGSGGGGSGGGGSEIVMTQSPATLSVSPGERATLSCRASQSVSSNTLAWYQQKPGQAPRLLIYGASTRATGIPARFSGSGSGTEFTLTISSLQSEDFAVYYCQQYGSSPLTFGPGTKVDIK
notes: as for B1
B19: TMPRSS4 Ab64 scFv (VH-VL) (scFv)
scFv: QVQLVQSGAEVKKPGASVKVSCKASGYTFTGYYMHWVRQAPGQGLEWMGMINPSGGGTTYAQKFQGRVTMTRDTSTSTVYMELSSLRSEDTAVYYCARDRRSMITFRTDYWGQGTLVTVSSGGGGSGGGGSGGGGSDIVMTQSPDSLAVSLGERATINCKSSQSVLYSSNNKNYLAWYQQKPGQPPKLLIYWASTRESGVPDRFSGSGSGTDFTLTISSLQAEDVAVYYCQQYYSTPYTFGQGTKLEIK
notes: as for B1
B20: TMPRSS4 Ab69 scFv (VH-VL) (scFv)
scFv: EVQLLESGGGLVQHGGSLRLSCAASGFAFSSYVLHWVRQAPGKGLEWVSSISSSSSYIYYADSVKGRFTISRDNSKNTLYLQMNSLRAEDTAVYYCARGDRYPGLPNYWGQGTLVTVSSGGGGSGGGGSGGGGSDIQMTQSPSSLSASVGDRVTITCRASQGISSWLAWYQQKPGKAPKLLIYQASNKDTGVPSRFSGSGSGTDFTLTISSLQPEDFATYYCQQSYRIPWTFGQGTKVEIK
notes: as for B1

The target in this experiment is T1, Human TMPRSS4 (Transmembrane protease, serine 4), wild type full length (human, UniProt Q9NRS4 1-437).
T1 construct: Type II membrane protein over-expressed on HEK293T cells (also endogenous on H1975 and LUDLU-1 cells); also called TMPRSS4 WT; HEK293T-TMPRSS4
T1 sequence (Q9NRS4 whole entry): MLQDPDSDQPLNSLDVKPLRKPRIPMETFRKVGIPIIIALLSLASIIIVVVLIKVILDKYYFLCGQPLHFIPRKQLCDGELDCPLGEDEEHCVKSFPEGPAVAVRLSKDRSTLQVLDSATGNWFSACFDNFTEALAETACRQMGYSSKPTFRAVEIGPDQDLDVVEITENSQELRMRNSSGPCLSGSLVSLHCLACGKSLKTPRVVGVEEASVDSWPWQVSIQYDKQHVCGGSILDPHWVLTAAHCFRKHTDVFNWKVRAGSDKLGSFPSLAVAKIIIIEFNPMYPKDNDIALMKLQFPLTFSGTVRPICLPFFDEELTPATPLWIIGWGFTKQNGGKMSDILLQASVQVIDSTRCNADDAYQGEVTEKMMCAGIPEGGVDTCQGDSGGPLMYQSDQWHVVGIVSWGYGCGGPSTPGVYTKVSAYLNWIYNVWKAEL
Nature of the experiment: flow cytometry, monoclonal phage on HEK293T-TMPRSS4 cells.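 Further: bound phage detected with a PE-labelled mouse anti-M13 monoclonal antibody, read by flow cytometry.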 A general note: Flow cytometry measures light scatter and fluorescence of single cells or particles in a stream.
For B1, the binding result is listed as “binds”.

Consider B2, for which the binding result is “binds”.

In the case of B3, the binding result is “binds”. Under B4 stands “binds”; under B5, “binds”; under B6, “binds”. In the case of B7, the binding result is “binds”. Under B8 stands “binds”; under B9, “binds”.

For B10, the binding result was “binds”.

As for B11, the binding result was “binds”. The value for B12 was “binds”. As for B13, the binding result is “binds”. Regarding B14, the binding result was “binds”.

Consider B15, for which the binding result is “binds”. Under B16 stands “binds”; under B17, “binds”.

For B18, the binding result is given as “binds”. Turning to B19, the binding result is listed as “binds”. Turning to B20, the binding result is reported as “binds”.
